{"source": "the nanobody polyreactivity screen of Harvey et al. (2022)", "data": [{"test": "yeast display, Sf9 membrane polyspecificity reagent, FACS + sequencing; frameworks hold sequencing errors", "procedure,_shortened": "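Galactose-induced (36–48 hours) yeast carrying a synthetic nanobody display library were exposed to 10% biotinylated, detergent-solubilized Sf9 membrane reagent at 4 °C for 1 hour. FACS followed streptavidin microbead enrichment, using low and high (top ~1%) gates for expression (anti-HA) and reagent binding (streptavidin). Colony PCR, MiSeq 2 × 250 sequencing and CDR-length filtering followed. Labels for polyreactivity reflect the gate of origin.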", "values": [{"sequence": "QVQLEESGGGLVQAGGSLRLSCAASGSTFGYYAMGWYRQAPGKERELVAAISRSGGITYYADSVKGRFTISRDNAKNTVYLQMNSLKPDDTAVYYCAADRNRYTGEDDSWGQGTQVTVSS", "polyreactivity (PSR sort gate)": "low polyreactivity"}, {"sequence": "QVQLVESGGGLVQAGGSLRLSCAASGFTLRYYAMGWYRQAPGKERELVATINRSGASTYYADSVKGRFTISRDNAKNTVYLQMNRLKPEDTAVYYCNTATSRAYRYDYWGQGTQVTVSS", "polyreactivity (PSR sort gate)": "high polyreactivity"}, {"sequence": "QVQLVESGGGLVHAGGSLRLSCAASGRTFYGNAMGWYRQAPGKEREFVAGISWRGGRTYYADSVKGRFTISRDNAKNTVYLQMHSLKPEDTGVYYCNARYIYTRPRPRNYWGLGTQVTVSS", "polyreactivity (PSR sort gate)": "high polyreactivity"}, {"sequence": "QVQLVESGGGLVQAGGSLRLSCAASGSTFFGYDMGWYRQAPGKERELVATINSGGSTYYADSVKGRFTISRDNAKNTVYLQMNSLKPEDTAVYYCAARPSYLYPYDRTGEYDYWGQGTQVTVSS", "polyreactivity (PSR sort gate)": "high polyreactivity"}, {"sequence": "QDQLVESGGGLVQAGGSLRLSCAASGSTFEVYAMGWYRQAPGKERELVAGITRGGSTNYADSVKGRFTISRDNAKNTVYLQMNSLKPEDTAVYYCAAPKYLGTDEYDYWGQGTQVTVSS", "polyreactivity (PSR sort gate)": "low polyreactivity"}, {"sequence": "QDQLVESGGGLVQAGGSLRLSCAPSGRIFTTYGMGWYSQAPGKERELVAAISRSGGSTYYADSVKGRFTISRDNAKNTVYLQMNSLKPEDTAVYYCAAVPTSNSFRSSFYYWGQGTQVTVSS", "polyreactivity (PSR sort gate)": "high polyreactivity"}, {"sequence": "QVQLVESGGGLVQAGGSLRLSCAASGSTFLYYAMGWYRQAPRKESELVATITDGGSTNYSDSVKGRFTISRDNAKNTVDLQMNSLKPEDTAVYYCAKRQWRPTYRYGYWGQGTQVTVSS", "polyreactivity (PSR sort gate)": "low polyreactivity"}, {"sequence": "QVHLVESGGGLVQAGGSLRLTCAASGLIFYDNMGWYRQAPGKERELVAAISSSGGSTSYADSVKGRFTISRDNAKNTVYLQMTSLKPVDTAVYYCAADSYPAYLGFVGFDYWGKGTQVTVSS", "polyreactivity (PSR sort gate)": "low polyreactivity"}, {"sequence": "QVQLVESGGGLVQAGGSLRLICAASGNIFGAYAMGWNIQAPGKERELVAVIRFDDGSTYYADSVKGRFTISRDNAKNTVYLQMNSLKPEDTAVDFCAVRLYLEMDYWGQGTQVTVSA", "polyreactivity (PSR sort gate)": "high polyreactivity"}, {"sequence": "QVQLVESGGGLVQAGGSLRLSCAASGSTFGSNAIGWYRQAPGKERELVAAISKRGGSTYYADSVKGRFTISRDNAKNTVYLQMNSLKPEDTAVYYCAVAYTPSRRYSAYSADRMDYWGQGTQVTVSS", "polyreactivity (PSR sort gate)": "high polyreactivity"}, {"sequence": "QVQLVESGGGLVQAGGSLRLSCAASGRTFRTYTMGWYRQAPGKERELVAAISWSGSSTYYADSVKGRFTISRDNAKNTVYLQMNSLKPEDTAGYYCAARGLYDYGYWGQGTQVTVSS", "polyreactivity (PSR sort gate)": "high polyreactivity"}, {"sequence": "QVQLVESGGGLVQAGGSLRLSCAASGRIFRSNGMGWYRQAPGKERELVAAITYRGGNTYYADSVKGRFTISRDNAKNTVYFQMNSLKPEDTAVYYCANQGVRRHYGYDYWGQGTQVTVSS", "polyreactivity (PSR sort gate)": "high polyreactivity"}, {"sequence": "QVQLVESGGGLVQAGGSLRLSCAASGRIFWYYSMGRYRQAPATEREVVATITTRSGSTYYADSVKGRFTISRDNAKNTVYLQMNSMKPEDTAGYYCAADWPLLYTGSHSQTKYGYWGQGTQVTVSS", "polyreactivity (PSR sort gate)": "high polyreactivity"}, {"sequence": "QVQLVESGGGLVQAGGSLRLSCAASGSTFRGYAMGWYRQAPGKERELVAAIISDGTTNYADSVKGRFTISRDNAQTTVYLQMNSLKPEDTAVYYCNAEVQGGRPQFDYWGQGTQVTVSS", "polyreactivity (PSR sort gate)": "low polyreactivity"}, {"sequence": "QVQLVDSGGGLVQAGGSLRISCAASGRTFYWYAMGWSRQAPGKEREFVAAISWNVGSTYYADSVKGRFTISRDHAKNTVYLQMNSLKPEDTAVYYCAAELGYPYSTYADWYYYWGQGTQVTVSS", "polyreactivity (PSR sort gate)": "high polyreactivity"}, {"sequence": "QVQLVESGGGLVQAGGSLRLSCAASGSTFYANLMGWYRQAPGKEWEFVAAIDGSGGRTYYADSVKGRFTISRDNAKNTVYLQMNSLKPEVTAVYYCAKKRIVPVIQFGRDYNYWGQGKQVTVSS", "polyreactivity (PSR sort gate)": "high polyreactivity"}, {"sequence": "QVQLVESGGGLGQAGGSLSLSCAASGFNFSHYAMGWYIPAPGKERELVAAITRGGSTKYADSVKGRFTISRDNAKNTVDLEMNSLKPEDTAVYYCAKDKTYRNVRGVGYWGQGTQVTVSS", "polyreactivity (PSR sort gate)": "high polyreactivity"}, {"sequence": "QVHLVESVGGLVQAGGSLRLSSAASGIIFRSNAMGWYRQAPGKERELVAAISSRGSSTNYADSVKGRFTISRDNAKNTVYLQMNSLNPEDTAVYYCNARGSRVDQTESEYWGQGTQVTVSS", "polyreactivity (PSR sort gate)": "high polyreactivity"}, {"sequence": "QVQLVESGGGLVQAGGSLRLSCAASGSTSRYAMGWYRQAPGKERELVAAITRSGGTTYYADSVKGRFTISRDNAKNTVYLQMNSLKPEDTAVYYCATSDRQVKYDYWGQGTQVTVSS", "polyreactivity (PSR sort gate)": "low polyreactivity"}, {"sequence": "QVQLVESGGGLVQAGGSIRLSCAASGSTFGGNAMGWYRQAPGKERELVAAITGTGGRTFYADSVKGRFTISRDNAKNTVYLQMNSLKPEDTAVYFCAADSYIYSVNYWGQGTQVTVSS", "polyreactivity (PSR sort gate)": "low polyreactivity"}, {"sequence": "QVQLVESGGGLVQAGGSLRLSCDASARTFWRNAMGWYRQAPGKERELVAAISYSGGSTYYADSVKGRFTISRDYAKNTVYLQMNSLKPEDTAVYYCAVVYSTSSLYSGYYWGQGTQVTVSS", "polyreactivity (PSR sort gate)": "low polyreactivity"}, {"sequence": "QVQLVESGGGLVQAGGSLRLSCAASGSTFRYYAMGWYRQAPGKERELVAAISSSGGSTYYADSVKGRFTISRDNAKNTVYLQLNSLKPEDTAVYYCNRGVVYRTGRFDYWGQVTQVTVSS", "polyreactivity (PSR sort gate)": "high polyreactivity"}, {"sequence": "QVQLVESGGGLVPAGGSLRLSCAASGSTFEVNAMGWYRQAPGKERELVADITSGGSTNYADSVKGRFTISRDNAKNTVFLQMNSLKPEDTAVYFCARDDWFGFIRVQEMDYWGQGTQVTVSS", "polyreactivity (PSR sort gate)": "low polyreactivity"}, {"sequence": "QVQLVESGRGLVQTGGSLRLSCAASGLVNAMGWYRQAPWKERELVAAISSGGSTYYADSVKGRFTISRDNAKNTVYLQMNSLKPEDTAVYYCNAVYFRHYGYGYWGQGTQVTVSS", "polyreactivity (PSR sort gate)": "low polyreactivity"}, {"sequence": "QVQLVESGGGLVQAGGSLRLSCAASGFTLHVYAMGWYRQAPGKERELVAAISTGGNTNYADSVKGRFTISRDNAKNTVYLQMNSLKAEDTAVYYCNARYTSRRSRRPYYEWGQGTQVTVSS", "polyreactivity (PSR sort gate)": "high polyreactivity"}, {"sequence": "QVQLVESGGGLVQAGGSLRLSCAASGSIFRDYVMGWYRQAPGKERELVAAISGNDGSTYYADSVKGRFTISRDNAKNTVYLQLNSLKPEDTAVYYCNADEASTFPQFYSYLDFDYWGQGTQVTVSS", "polyreactivity (PSR sort gate)": "low polyreactivity"}, {"sequence": "QVQLVESGGGLVQAGGSLRLSCAASRIFAYYTMGWIRQSPGKERELVAAITYSGGSTFYADSVKGRFTISRDNAKNTVYLQMNRLKPEDSSVYYCNAVVRNYGYDYWGQGTQVTVSS", "polyreactivity (PSR sort gate)": "high polyreactivity"}, {"sequence": "QFQLVESGGGLVQAGGSLRLSCAASGSIFTLYDMGWYRQAPGNERELVAAISSGGGSTYYADSVKGRFTISRDNAKNTVYLQMNSLKPEDTAVYYCAARNRRAKYGDWGQGTQVTVSS", "polyreactivity (PSR sort gate)": "high polyreactivity"}, {"sequence": "QVQLVESGGGLVQAGGSLRLSCAASGSTFQYNAMAWYRQAPGKEREFVAAITSSGGSTYYADSVKGRFTISRDNAKNTVYLQMNSLKPEDTAVYYCNKRRTRRYDYWGQGTQVTVSS", "polyreactivity (PSR sort gate)": "high polyreactivity"}, {"sequence": "QVQLVESGGGLVQAGGSLRLSCAASGSIFNYYAMGWYRQAPGKERELVAAIRSTGSTNYADSVKGRFTISRDNAKNTVYLQMNSLKPEDTAVYYCATDVSDWLYFAEHYYWGQGTQVTVSS", "polyreactivity (PSR sort gate)": "low polyreactivity"}, {"sequence": "QVQLVESGGGVVQAGGSLRLSCAASGRTSGSYAMGWYRQAPGNERELVAVITTSDGSTYYADSVKGRFTISRDNAKNTVYLQMNSLKPEDTAVYYCNVDYPNLWYDSYYYWGQGTQVTVSS", "polyreactivity (PSR sort gate)": "low polyreactivity"}, {"sequence": "QVQLVESGGGLVQAGGSLRLSCAASGITFYHNAMGWYRPAPRKERELVATISRRGGRTYYADSVKGRFTISRDNAKNTVYLQMNSLKPEDTAVYYCAAAQKQSRYDYWGQGTQVTVSS", "polyreactivity (PSR sort gate)": "high polyreactivity"}, {"sequence": "QVQLVESGGGLVQAGVILRLSCAASGSTFSLYAMGWYRKPPGKERELVAAISWSDGSTYYADSVKGRFTISRDNAKITVYLQMNSLKAEDTAVSYFANASSFAYYRFGYWGQVTQVTVSS", "polyreactivity (PSR sort gate)": "low polyreactivity"}, {"sequence": "QVQLVESGGGLVQAGGSLRLSCAASGSIFHGYTMGWYIQSPGKERELVAAISRRGDSTYYADSVKGRFTISRDNAKNTVYLQMNSLKPEDTAVYYCATVFYRTRYVPYGYWGQGTQVTVSS", "polyreactivity (PSR sort gate)": "low polyreactivity"}, {"sequence": "QVQLVESGGGLVQAGGSLRLSCAASGFTFEKNAMGWDRQAPGKERELGAAISRGGSTYADSVKGRFTISRDNAKNTVHLQINSLKPEDTAVYYCAADTVYIFSSAINGEFGDWGQGTQVTVSS", "polyreactivity (PSR sort gate)": "low polyreactivity"}, {"sequence": "QVQLVESGGGLVQAGGSLRLSCAASGRIFVNNAKGWYRPAPGKERELVAAISRGASTYYADSVKGRFTISRDNAKNTVYLQLNSLKAEDTAVYYGNARTDAYGASEMGYWGQGTQVTVSS", "polyreactivity (PSR sort gate)": "high polyreactivity"}, {"sequence": "QVQLVESGGGLVQAGGSLRLSCAASGRIFYRNAMGWYRPAPGKERELVAAISGSGGSTSYADSVKGRFTISRDNAKNTVYLQMNSLKPEDTAVYYCAAYKLYWGQGTQVTVSS", "polyreactivity (PSR sort gate)": "high polyreactivity"}, {"sequence": "QVQLVESGGGLVQAGGSLRLSCAASGRTFGQYAMGLYRQAPGKERELVAAITTRGGSTYYADSVKGRFTISRDNAKNTVYLQMNSLKPEDTAVYYCNADYPVKRRRGRDYWGQGTQVTVSS", "polyreactivity (PSR sort gate)": "high polyreactivity"}, {"sequence": "QVQLVESGGGLVQAGGSLRLSCAASGSIFDVNAMGCARQAPGNERELVAGISWSGGSTYYADSVKGRFTISRDNAKNTVYLQMNSLKPEDTAVYYCNAEGPIYFYFYRGMDYWGQGTQVTVSS", "polyreactivity (PSR sort gate)": "low polyreactivity"}, {"sequence": "QVQLVESGGGLVQAGGSLLLSCAASGITSWYYVMGWYRQAPGKERELVAAITRSGGSTYYADSVKGRFTISRDTAKNTVFLQMNSLKPEDTAVYYCAARSYPQRWTTYPYGYWGQGTQVTVSS", "polyreactivity (PSR sort gate)": "high polyreactivity"}, {"sequence": "QVQLVESGGGLVQAGGSLRLSCAASGIIFIHNAMGGYRQAPGTERELVAAINWSGGRTSYADSVKGRFTISRDNAKNTVYLQMTRLKPEDTAVYYCAADGRRYSGEYYYWGQGTQVTVSS", "polyreactivity (PSR sort gate)": "high polyreactivity"}, {"sequence": "QVQLQESGGGLMQAGGNLRLSCAASGYISTNDDMDWYRQAPGKERELVARIDDGAITNYADSVKGRFTISRDNAKKTVYLQMNSLKPEDTAVYYFAVYSGDDYYHDYWGQGTQVTVSS", "polyreactivity (PSR sort gate)": "low polyreactivity"}, {"sequence": "QVQLVESGGGLVQAGRSLRLSCAASGRIFADYAMGWYRQAPGKERQLVAAITSGGTTYADSVKGRFTISRDNAKNTVYLQMNSLKPEDSAVYYCAAQGQGRTGGFGKGSTYGYWGQGTQVTVSS", "polyreactivity (PSR sort gate)": "low polyreactivity"}]}]}
